Data from patent publication US11639503B2, “Anti-chymase aptamer and use for same” (RIBOMIC INC., priority 2017, dated 2023).
Oligonucleotides are written 5' to 3', each unit as a sugar letter and its base; * is a phosphorothioate linkage, no mark a phosphodiester; rarer units and linkages stand in square brackets, end groups in braces. Plain capitals give the bases only. r = 2'-OH (RNA); f = 2'-fluoro

T1: chymase (recombinant, manufactured by SIGMA) (Homo sapiens, UniProt P23946)
T1 construct: purchased SIGMA
T1 sequence (P23946 22-247): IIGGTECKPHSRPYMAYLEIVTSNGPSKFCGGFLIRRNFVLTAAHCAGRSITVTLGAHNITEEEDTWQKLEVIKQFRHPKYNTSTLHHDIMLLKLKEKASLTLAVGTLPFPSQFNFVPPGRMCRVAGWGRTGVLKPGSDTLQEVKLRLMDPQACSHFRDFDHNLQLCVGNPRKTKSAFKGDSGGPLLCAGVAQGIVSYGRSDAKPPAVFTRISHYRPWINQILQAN

T2: chymase purified from human skin mast cell (native, Calbiochem) (Homo sapiens, UniProt P23946)
T2 construct: Here, the native is chymase purified from human skin mast cell; purchased Calbiochem; host or cells: human skin mast cell (tissue-derived)
T2 sequence (P23946 22-247): T1 sequence (P23946 22-247)

B1: 2 (nucleic acid)
chain: rGrGrGrArGfCrArGrGrArGrArGrArGrGfUfCrArGrAfUrGrAfUfCrGrGrAfCrAfUrArAfCrAfUfUrGfUfUrGrGrGrGfUrGfUfCrArArGrGfCfCfUrAfUrGfCrGfUrGfCfUrArGfUrGfUrGrA
modifications: aptamer
B2: 5 (nucleic acid)
chain: rGrGrGrArGfCrArGrGrArGrArGrArGrGfUfCrArGrAfUrGrAfUrGrAfCfCrGrAfUfUrAfUrArGrGfUrArAfCfCrAfCfUfUrArGrGrGrGrGfCfCfUrAfUrGfCrGfUrGfCfUrArGfUrGfUrGrA
modifications: aptamer
B3: 8 (nucleic acid)
chain: rGrGrGrArGfCrArGrGrArGrArGrArGrGfUfCrArGrAfUrGrAfUfUrGrAfCrGrAfCfUrAfUrArGrGfUrArAfCfCfUfUfUrAfCrGrGrGrGrGfCfCfUrAfUrGfCrGfUrGfCfUrArGfUrGfUrGrA
modifications: aptamer
B4: 6 (nucleic acid)
chain: rGrGrGrArGfCrArGrGrArGrArGrArGrGfUfCrArGrAfUrGfUfCrAfUrGrAfCfUfUrAfUrArGrGfUrArAfCfCrGrAfUrArAfUrGrGrGrGrGfCfCfUrAfUrGfCrGfUrGfCfUrArGfUrGfUrGrA
modifications: aptamer
B5: 7 (nucleic acid)
chain: rGrGrGrArGfCrArGrGrArGrArGrArGrGfUfCrArGrAfUrGfUfUfUrGrGfUrArGfUrArAfCfUrGrGrArAfUrArGrGrGrGfCfUrAfCrArGrGfCfCfUrAfUrGfCrGfUrGfCfUrArGfUrGfUrGrA
modifications: aptamer
B6: 1 (nucleic acid)
chain: rGrGrGrArGfCrArGrGrArGrArGrArGrGfUfCrArGrAfUrGrArGfCrAfUrGfCfUfUfUfUfUrGrGfUrArAfCfCrGrAfUrArAfUrGrGrGrGrGfCfCfUrAfUrGfCrGfUrGfCfUrArGfUrGfUrGrA
modifications: aptamer
B7: 4 (nucleic acid)
chain: rGrGrGrArGfCrArGrGrArGrArGrArGrGfUfCrArGrAfUrGfUrArAfCfUfCfUrAfUfUrGrArGrGrGrGfCrAfUfCrArGfCrAfCrArGfUrArGfCfCfUrAfUrGfCrGfUrGfCfUrArGfUrGfUrGrA
modifications: aptamer
B8: 3 (nucleic acid)
chain: rGrGrGrArGfCrArGrGrArGrArGrArGrGfUfCrArGrAfUrGrAfUrArAfCfCrArGfUfUrGrGrGrGrGrGfUfCrArAfUfUrAfCrAfUrGrGrGrAfCfCfUrAfUrGfCrGfUrGfCfUrArGfUrGfUrGrA
modifications: aptamer

Biological target: T1, chymase (recombinant, manufactured by SIGMA)
Experiment: chymase enzyme activity inhibition, synthetic substrate Suc-Ala-Ala-Pro-Phe-MCA
Format: biochemical
Settings: Table 1; substrate Suc-Ala-Ala-Pro-Phe-MCA 100 μM, chymase 0.05 μg (16.7 nM), 37° C.; mean of 2 or 3 measurements
Protocol: A first method employs a synthetic substrate. A useful chymase substrate is Suc-Ala-Ala-Pro-Phe-MCA (4-methylcoumaryl-7-amide group) (manufactured by Peptide Institute, Inc.), which contains the 4-amino acid peptide “Ala-Ala-Pro-Phe” (SEQ ID NO: 41), a standard substrate for chymotrypsin-like proteases.
The assay is performed using a 96-well plate (F16 Black Maxisorp Fluoronunc, manufactured by Nunc), with a reaction mixture volume of 100 μL, in a buffer solution (solution C; see Example 2 below). First, each nucleic acid is prepared in solution C to obtain 50 μL solutions. After 10 μL of the 1 mM substrate prepared in solution C is added, the plate is set to the microplate reader SpectraMax190 (manufactured by Molecular Devices Corporation), and incubated at 37° C. for 5 minutes. Separately, 0.05 μg of chymase (recombinant, manufactured by SIGMA) is diluted in solution C, and 40 μL of this dilution is incubated at 37° C. for 5 minutes. The chymase solution is added to the mixture of the nucleic acid and substrate to initiate an enzyme reaction. The plate containing the reaction mixture is set to the microplate reader SpectraMax190 (manufactured by Molecular Devices Corporation), and examined for time-dependent changes in the fluorescence intensity at 37° C. for 5 minutes (excitation wavelength 380 nm, detection wavelength 460 nm). A linear approximation of the increase in the fluorescence of the AMC (7-amino-4-methylcoumarine) released from the substrate by chymase activity is generated, and its slope is taken as the initial reaction velocity. For control, samples are treated and analyzed in the same manner in two cases: use of a nucleic acid pool containing a random sequence of 30 or 40 nucleotides (negative control), and use of chymostatin, a known chymotrypsin-like serine protease inhibitor (positive control). Taking the initial reaction velocity without the nucleic acid and inhibitor as a 100% enzyme activity, the inhibitory rate for each test substance is calculated, and the inhibitor concentration required to cause a 50% inhibition of the enzyme activity (IC50) is determined.
Whether the nucleic acids shown by SEQ ID NO: 1-8 inhibit the enzyme activity of chymase was determined as described below. The chymase substrate used was Suc-Ala-Ala-Pro-Phe-MCA (manufactured by Peptide Institute, Inc.), which contains the 4-amino-acid peptide Ala-Ala-Pro-Phe, a standard substrate for chymotrypsin-like proteases. Here, Suc is a protecting succinyl group, and MCA is a 4-methylcoumaryl-7-amide group; upon cleavage of the C-terminal side of phenylalanine, AMC (7-amino-4-methylcoumarine) is released. By detecting the fluorescence of this AMC, the enzyme activity of chymase can be determined. The assay was performed using a 96-well plate (F16 Black Maxisorp Fluoronunc, manufactured by Nunc), with a reaction mixture volume of 100 μL, in solution C as a buffer solution. Here, the solution C is a mixed solution of 145 mM sodium chloride, 5.4 mM potassium chloride, 1.8 mM calcium chloride, 0.8 mM magnesium chloride, 20 mM Tris (pH 7.6), and 0.05% Tween20. First, nucleic acid was serially diluted in solution C to obtain 50 μL solutions. After 10 μL of the 1 mM substrate prepared in solution C was added thereto, the plate was set to the microplate reader SpectraMax190 (manufactured by Molecular Devices Corporation), and incubated at 37° C. for 5 minutes. […] The chymase solution was added to the mixture of the nucleic acid and substrate to initiate an enzyme reaction. The final chymase concentration in the reaction mixture was 16.7 nM, the final substrate concentration being 100 μM. The plate containing the reaction mixture was set to the microplate reader SpectraMax190 (manufactured by Molecular Devices Corporation), and examined for time-dependent changes in the fluorescence intensity at 37° C. for 5 minutes (or 30 minutes) (excitation wavelength 380 nm, detection wavelength 460 nm). […]

| Molecule | IC50 [nM] |
| --- | --- |
| CC(C)C[C@H](NC(=O)[C@@H](NC(=O)N[C@@H](Cc1ccccc1)C(=O)O)[C@@H]1CCN=C(N)N1)C(=O)N[C@H](C=O)Cc1ccccc1 [chymostatin, reference compound] | 100 to 200 |
| B1 | 31 |
| B2 | 7 |
| B3 | 35 |
| B4 | 5.5 |
| B5 | 52 |
| B6 | 41 |
| B7 | 10.8 |
| B8 | 26 |

Same assay, conditions: Table 5; MCA substrate, amount of chymase 0.005 μg instead of 0.05 μg; one measurement

| Molecule | IC50 [nM] |
| --- | --- |
| 21 (GGCAGAUGAUCGGACAUAACAGGUUAGAUAGAGUUAAAAACCUGGGGUGUCAA; 2'-fluoro at CU, RNA at AG, backbone not given here) [compound 21] | 5.7 |
| 22 (GGCAGAUGAUCGGACAUAACAGUUAGAUAGAGUUAAAAACUGGGGUGUCAA; 2'-fluoro at CU, RNA at AG, backbone not given here) [compound 22] | 5 |
| 23 (GGCAGAUGAUCGGACAUAACAGUAGAUAGAGUUAAAACUGGGGUGUCAA; 2'-fluoro at CU, RNA at AG, backbone not given here) [compound 23] | 7.8 |
| 24 (GGCAGAUGAUCGGACAUAACAUAGAUAGAGUUAAAAUGGGGUGUCAA; 2'-fluoro at CU, RNA at AG, backbone not given here) [compound 24] | 3.7 |
| 25 (GGCAGAUGAUCGGACAUAACAAGAUAGAGUUAAAUGGGGUGUCAA; 2'-fluoro at CU, RNA at AG, backbone not given here) [compound 25] | 5.8 |

Biological target: T2, chymase purified from human skin mast cell (native, Calbiochem)
Experiment: chymase enzyme activity inhibition, native substrate angiotensin I (His-Leu fluorescence)
Format: biochemical
Settings: Table 2; substrate angiotensin I 50 μM, chymase 0.5 nM, 37° C. 90 min; mean of 2 or 3 measurements
Protocol: A second method of evaluation employs a native substrate. A useful native substrate for chymase is angiotensin I. Here, His-Leu, a peptide fragment released upon degradation of angiotensin I, is fluorescently derivatized, and the fluorescence intensity therefrom is quantified.
In the assay, an enzyme reaction is carried out in 50 μL of solution C. First, 0.3-0.75 ng of chymase (recombinant, manufactured by SIGMA; or native, manufactured by Calbiochem) is diluted in solution C to obtain 5 μL chymase solution. Each nucleic acid is prepared in solution C to obtain 25 μL solutions. 5 μL of each chymase dilution and 25 μL of each nucleic acid solution are mixed, and then the mixture is incubated at 37° C. for 5 minutes. Separately, 20 μL of 125 μM angiotensin I (manufactured by Peptide Institute, Inc.) is prepared in solution C and incubated at 37° C. for 5 minutes. The angiotensin I solution is added to the mixture of chymase and nucleic acid, and the enzyme reaction is initiated. After the reaction was allowed to proceed at 37° C. for 90 minutes, 25 μL of ice-cooled 30% trichloroacetic acid solution is added to terminate the reaction. The entire mixture is centrifuged at 4° C., 14000 rpm for 10 minutes, and 30 μL of the resulting supernatant is used for the subsequent reaction for fluorescent derivatization.
After 30 μL of the supernatant is added to a 96-well plate (Black, manufactured by Costar), 15 μL of 2% o-phthalaldehyde (manufactured by SIGMA) solution in methanol and 170 μL of 0.3M NaOH solution are mixed in each well, and the plate is allowed to stand at room temperature for 10 minutes. Subsequently, 25 μL of 3M HCl solution is added to terminate the reaction. The plate is set to the microplate reader SpectraMax190 (manufactured by Molecular Devices Corporation), and the fluorescence intensity is determined at an excitation wavelength of 355 nm and a fluorescence wavelength of 460 nm.
For control, samples are treated and analyzed in the same manner in two cases: use of SEQ ID NO: 58 (negative control) and use of chymostatin, a known chymotrypsin-like serine protease inhibitor (positive control). In both cases, fluorescence intensity obtained at 0 minute reaction time serves as a blank determination. Taking the fluorescence intensity detected with the addition of an equal volume of solution C, in place of each nucleic acid, in the chymase enzyme reaction as 100%, the inhibitory rate for each test substance is calculated, and the inhibitor concentration required to cause a 50% inhibition of the enzyme activity (IC50) is determined.
Whether the nucleic acids shown by SEQ ID NO: 9 and 10 inhibit the enzyme activity of chymase was determined by the following method. Angiotensin I is converted by chymase to angiotensin II, during which a peptide fragment His-Leu is released. Since the peptide His-Leu is fluorescently derivatized by o-phthalaldehyde, its fluorescence intensity can be quantitatively measured.
The total volume of solution for an enzyme reaction in the assay was set to 50 μL, and the reaction was performed in solution C buffer. At first, native (manufactured by Calbiochem) was diluted with solution C to give 5 μL thereof. Here, the native is chymase purified from human skin mast cell. The nucleic acid was serially diluted with solution C at a concentration of 0.0027-2 μM to give 25 μL thereof. The chymase solution (5 μL) and the nucleic acid solution (25 μL) were mixed, and the mixture was incubated at 37° C. for 5 min. On the other hand, […] angiotensin I (manufactured by PEPTIDE INSTITUTE, INC.) was prepared in solution C to give 20 μL thereof, which was incubated at 37° C. for 5 min. The angiotensin I solution was added to a mixture of chymase and nucleic acid to start an enzyme reaction. The final chymase concentration of the reaction solution was 0.5 nM, and the final substrate concentration was 50 μM. […]

| IC50 [nM] | Molecule |
| --- | --- |
| 350 to 500 | CC(C)C[C@H](NC(=O)[C@@H](NC(=O)N[C@@H](Cc1ccccc1)C(=O)O)[C@@H]1CCN=C(N)N1)C(=O)N[C@H](C=O)Cc1ccccc1 [chymostatin, reference compound] |

Same assay, conditions: Table 3; angiotensin I as substrate; mean of 2 or 3 measurements; >1 = no inhibitory activity up to 1 μM

| Molecule | IC50 [nM] |
| --- | --- |
| B1 | 10 |

Same assay, conditions: Table 4; angiotensin I as substrate; mean of 2 or 3 measurements

| Molecule | IC50 [nM] |
| --- | --- |
| B1 | 10 |

Same assay, conditions: Table 6; angiotensin I as substrate; mean of 2 or 3 measurements

| Molecule | IC50 [nM] |
| --- | --- |
| B1 | 10 |
